Patent US20190361034A1
Blank lines part the entries; values can stand above or below the substance they belong to.

How the values were obtained:
[1] = molecular target: MHC class II molecules on MHC class II-expressing Raji cells (human); assay: direct ELISA, plate-immobilised Raji cells; 10% FBS, 10,000 cells; 250 ng/ml
[2] = molecular target: MHC class II molecules on MHC class II-expressing Raji cells (human); assay: transfer cell ELISA, Raji cells; 0.977 ng/ml; plate row D
[3] = molecular target: MHC class II molecules on MHC class II-expressing Raji cells (human); assay: transfer cell ELISA, Raji cells; 7.813 ng/ml; plate row C
[4] = molecular target: MHC class II molecules on MHC class II-expressing Raji cells (human); assay: transfer cell ELISA, Raji cells; 1.953 ng/ml; plate row D
[5] = molecular target: MHC class II molecules on MHC class II-expressing Raji cells (human); assay: direct ELISA, plate-immobilised Raji cells; 10% FBS, 5,000 cells; 125 ng/ml
[6] = molecular target: MHC class II molecules on MHC class II-expressing Raji cells (human); assay: direct ELISA, plate-immobilised Raji cells; 10% FBS, 2,500 cells; 62.5 ng/ml
[7] = molecular target: MHC class II molecules on MHC class II-expressing Raji cells (human); assay: direct ELISA, plate-immobilised Raji cells; 10% FBS, 5,000 cells; 31.25 ng/ml
[8] = molecular target: MHC class II molecules on MHC class II-expressing Raji cells (human); assay: transfer cell ELISA, Raji cells; 500 ng/ml; plate row C
[9] = molecular target: MHC class II molecules on MHC class II-expressing Raji cells (human); assay: direct ELISA, plate-immobilised Raji cells; 5% BSA, 2,500 cells; 62.5 ng/ml
[10] = molecular target: MHC class II molecules on MHC class II-expressing Raji cells (human); assay: transfer cell ELISA, Raji cells; 3.906 ng/ml; plate row C
[11] = molecular target: MHC class II molecules on MHC class II-expressing Raji cells (human); assay: transfer cell ELISA, Raji cells; 125 ng/ml; plate row C
[12] = molecular target: MHC class II molecules on MHC class II-expressing Raji cells (human); assay: direct ELISA, plate-immobilised Raji cells; 10% FBS, 5,000 cells; 500 ng/ml
[13] = molecular target: MHC class II molecules on MHC class II-expressing Raji cells (human); assay: direct ELISA, plate-immobilised Raji cells; 10% FBS, 10,000 cells; 62.5 ng/ml
[14] = molecular target: MHC class II molecules on MHC class II-expressing Raji cells (human); assay: direct ELISA, plate-immobilised Raji cells; 5% BSA, 5,000 cells; 500 ng/ml
[15] = molecular target: MHC class II molecules on MHC class II-expressing Raji cells (human); assay: transfer cell ELISA, Raji cells; 3.906 ng/ml; plate row D
[16] = molecular target: MHC class II molecules on MHC class II-expressing Raji cells (human); assay: direct ELISA, plate-immobilised Raji cells; 3% gelatin, 2,500 cells; 250 ng/ml
[17] = molecular target: MHC class II molecules on MHC class II-expressing Raji cells (human); assay: direct ELISA, plate-immobilised Raji cells; 3% gelatin, 5,000 cells; 62.5 ng/ml
[18] = molecular target: MHC class II molecules on MHC class II-expressing Raji cells (human); assay: direct ELISA, plate-immobilised Raji cells; 0.5% Casein, 5,000 cells; 1000 ng/ml
[19] = molecular target: MHC class II molecules on MHC class II-expressing Raji cells (human); assay: direct ELISA, plate-immobilised Raji cells; 0.5% Casein, 5,000 cells; 31.25 ng/ml
[20] = molecular target: MHC class II molecules on MHC class II-expressing Raji cells (human); assay: BLI; IMP321 sample at 150% binding potency, Raji cells in solution; relative to reference standard
[21] = molecular target: MHC class II molecules on MHC class II-expressing Raji cells (human); assay: direct ELISA, plate-immobilised Raji cells; 3% gelatin, 5,000 cells; 250 ng/ml
[22] = molecular target: MHC class II molecules on MHC class II-expressing Raji cells (human); assay: direct ELISA, plate-immobilised Raji cells; 3% gelatin, 10,000 cells; 1000 ng/ml
[23] = molecular target: MHC class II molecules on MHC class II-expressing Raji cells (human); assay: direct ELISA, plate-immobilised Raji cells; 0.5% Casein, 10,000 cells; 62.5 ng/ml
[24] = molecular target: MHC class II molecules on MHC class II-expressing Raji cells (human); assay: direct ELISA, plate-immobilised Raji cells; 3% gelatin, 5,000 cells; 1000 ng/ml
[25] = molecular target: MHC class II molecules on MHC class II-expressing Raji cells (human); assay: direct ELISA, plate-immobilised Raji cells; 0.5% Casein, 10,000 cells; 31.25 ng/ml
[26] = molecular target: MHC class II molecules on MHC class II-expressing Raji cells (human); assay: transfer cell ELISA, Raji cells; 1000 ng/ml
[27] = molecular target: MHC class II molecules on MHC class II-expressing Raji cells (human); assay: transfer cell ELISA, Raji cells; 250 ng/ml
[28] = molecular target: MHC class II molecules on MHC class II-expressing Raji cells (human); assay: direct ELISA, plate-immobilised Raji cells; 3% gelatin, 10,000 cells; 31.25 ng/ml
[29] = molecular target: MHC class II molecules on MHC class II-expressing Raji cells (human); assay: BLI; immobilised sample, Raji cells in solution; pH 7.0 control of FIG. 21
[30] = molecular target: MHC class II molecules on MHC class II-expressing Raji cells (human); assay: direct ELISA, plate-immobilised Raji cells; 3% gelatin, 5,000 cells; 500 ng/ml

OD (ELISA signal) [1]: 0.762 OD
OD (ELISA signal) [2]: 0.01 OD
OD (ELISA signal) [3]: 0.02 OD
OD (ELISA signal) [4]: 0.01 OD
OD (ELISA signal) [5]: 0.443 OD
OD (ELISA signal) [6]: 0.329 OD
OD (ELISA signal) [7]: 0.304 OD
OD (ELISA signal) [8]: 0.642 OD
OD (ELISA signal) [9]: 0.297 OD
OD (ELISA signal) [10]: 0.012 OD
OD (ELISA signal) [11]: 0.166 OD
OD (ELISA signal) [12]: 1.63 OD
OD (ELISA signal) [13]: 0.29 OD
OD (ELISA signal) [14]: 1.36 OD
OD (ELISA signal) [15]: 0.012 OD
Substance: IMP321 treated with Peptide-N-Glycosidase F (PNGase F) (Fc fusion)

OD (ELISA signal) [16]: 1.95 OD
OD (ELISA signal) [17]: 0.464 OD
OD (ELISA signal) [18]: 0.136 OD
OD (ELISA signal) [19]: 0.143 OD
Potency determined by BLI assay [20]: 150%
OD (ELISA signal) [21]: 2.1 OD
OD (ELISA signal) [22]: 1.97 OD
OD (ELISA signal) [23]: 0.142 OD
OD (ELISA signal) [24]: 2.31 OD
OD (ELISA signal) [25]: 0.18 OD
OD (ELISA signal) [26]: 2.03 OD
OD (ELISA signal) [27]: 0.956 OD
OD (ELISA signal) [28]: 0.389 OD
Bioactivity (binding) [29]: 95%
OD (ELISA signal) [30]: 1.88 OD
Substance: IMP321, recombinant soluble human LAG-3Ig fusion protein (Fc fusion)
